Experimental findings from the RNAGym collection of RNA variant scans (doi:10.7554/elife.80360) are described below.

B1: CPEB3 Ribozyme (parent)
chain: GGGGGCCACAGCAGAAGCGUUCACGUCGCGGCCCCUGUCAGAUUCUGGUGAAUCUGCGAAUUCUGCUGU

The data set covers variants of B1. The data set can be described thus: self-cleavage, relative activity (ratio to wild type); higher = more cleavage; co-transcriptional.
Take GGGGGCAACAGCAGGAGCGUUCACGUCGCGGCCCCUGUCAGAUUCUGGUGAAUCUGCGAAUUCUGCUGU [C7A A15G]: the self-cleavage was determined as 0.457. The result for GGGGGCAACAGCAGCAGCGUUCACGUCGCGGCCCCUGUCAGAUUCUGGUGAAUCUGCGAAUUCUGCUGU [C7A A15C] reads 0.162; that for GGGGGCAACAGCAGAAGCGUUCACGUAGCGGCCCCUGUCAGAUUCUGGUGAAUCUGCGAAUUCUGCUGU [C7A C27A], 0.0789; that for GGGGGCAACAGCAGAAGCGUUCACGUGGCGGCCCCUGUCAGAUUCUGGUGAAUCUGCGAAUUCUGCUGU [C7A C27G], 0.133.

On to GGGGGCAACAGCAGAAGCGUUCACGUUGCGGCCCCUGUCAGAUUCUGGUGAAUCUGCGAAUUCUGCUGU [C7A C27U], for which the self-cleavage stood at 0.142.

Regarding GGGGGCAACAGCAGAAGCGUUCACGUCGCGGCCCCUGUCAGAUUCUGGUGAAUAUGCGAAUUCUGCUGU [C7A C54A], the self-cleavage was determined as 0.318. GGGGGCAACAGCAGAAGCGUUCACGUCGCGGCCCCUGUCAGAUUCUGGUGAAUUUGCGAAUUCUGCUGU [C7A C54U]: the self-cleavage is 0.614. The same measure for GGGGGCAAGAGCAGAAGCGUUCACGUCGCGGCCCCUGUCAGAUUCUGGUGAAUCUGCGAAUUCUGCUGU [C7A C9G]: 0.639; for GGGGGCAAUAGCAGAAGCGUUCACGUCGCGGCCCCUGUCAGAUUCUGGUGAAUCUGCGAAUUCUGCUGU [C7A C9U]: 0.934; for GGGGGCAACAGAAGAAGCGUUCACGUCGCGGCCCCUGUCAGAUUCUGGUGAAUCUGCGAAUUCUGCUGU [C7A C12A]: 0.147. The result for GGGGGCAACAGGAGAAGCGUUCACGUCGCGGCCCCUGUCAGAUUCUGGUGAAUCUGCGAAUUCUGCUGU [C7A C12G] reads 0.378. GGGGGCAACAGCAGAAGCGUUCAUGUCGCGGCCCCUGUCAGAUUCUGGUGAAUCUGCGAAUUCUGCUGU [C7A C24U]: the self-cleavage turned out to be 0.192. The same measure for GGGGGCAACAGCAGAAGCGUUCAGGUCGCGGCCCCUGUCAGAUUCUGGUGAAUCUGCGAAUUCUGCUGU [C7A C24G]: 0.0158; for GGGGGCAACAGCAGAAGCGUUCAAGUCGCGGCCCCUGUCAGAUUCUGGUGAAUCUGCGAAUUCUGCUGU [C7A C24A]: 0.161.

For the variant GGGGGUCACAGCAGAAGCGUUCACGUCGCGGCCCCUGUCAGAUUCUGGUGAAUCUGCGAAUACUGCUGU [C6U U62A], the self-cleavage amounted to 0.873. The result for GGGGGUCACAGCAGAAGCGUUCACGUCGCGGCCCCUGUCAGAUUCUGGUGAAUCUGCGAAUGCUGCUGU [C6U U62G] reads 0.783.

With GGGGGUCACAGCAGAAGCGUUCACGUCGCGGCCCCUGUCAGAUUCUGGUGAAUCUGCGAAGUCUGCUGU [C6U U61G], the self-cleavage came out at 0.809. The same measure for GGGGGCAACAGCAGAAGCGUUCACGUCGCGGCCCCUGUCAGAUUGUGGUGAAUCUGCGAAUUCUGCUGU [C7A C45G]: 0.421. Regarding GGGGGCAACAGCAGAAGCGUUCACGUCGCGGGCCCUGUCAGAUUCUGGUGAAUCUGCGAAUUCUGCUGU [C7A C32G], the self-cleavage is 0.126. The same measure for GGGGGCAACAGCAGAAGCGUUCACGUCGCGGUCCCUGUCAGAUUCUGGUGAAUCUGCGAAUUCUGCUGU [C7A C32U]: 0.359. Regarding GGGGGCAACAGCAGAAGCUUUCACGUCGCGGCCCCUGUCAGAUUCUGGUGAAUCUGCGAAUUCUGCUGU [C7A G19U], the self-cleavage worked out at 0.163. The same measure for GGGGGCAACAGCAGAAGCCUUCACGUCGCGGCCCCUGUCAGAUUCUGGUGAAUCUGCGAAUUCUGCUGU [C7A G19C]: 0.143; for GGGGGCAACAGCAGAAGCGUUCACGUCGCGGCCCCUGUCUGAUUCUGGUGAAUCUGCGAAUUCUGCUGU [C7A A40U]: 0.147; for GGGGGCAACAGCAGAAGCGUUCACGUCGCGGCCCCUGUCCGAUUCUGGUGAAUCUGCGAAUUCUGCUGU [C7A A40C]: 0.15.

As to GGGGGCAACAGCAGAAGCGUUCACGUCGCGGCCCCUGUCAGAUUCUGGUGAAUCUGCGAAUUUUGCUGU [C7A C63U], the self-cleavage was determined as 0.515.

Consider GGGGGCAACAGCAAAAGCGUUCACGUCGCGGCCCCUGUCAGAUUCUGGUGAAUCUGCGAAUUCUGCUGU [C7A G14A], for which the self-cleavage is 0.167. Turning to GGGGGCAACAGCAUAAGCGUUCACGUCGCGGCCCCUGUCAGAUUCUGGUGAAUCUGCGAAUUCUGCUGU [C7A G14U], the self-cleavage worked out at 0.131. The result for GGGGGCAACAGCACAAGCGUUCACGUCGCGGCCCCUGUCAGAUUCUGGUGAAUCUGCGAAUUCUGCUGU [C7A G14C] reads 0.137; that for GGGGGCAACAGCAGAAGCGUUCACGUCGCGGCCUCUGUCAGAUUCUGGUGAAUCUGCGAAUUCUGCUGU [C7A C34U], 0.487. The same measure for GGGGGCAACAGCAGAAGCGUUCACGUCGCGGCCACUGUCAGAUUCUGGUGAAUCUGCGAAUUCUGCUGU [C7A C34A]: 0.106; for GGGGGCAACAGCAGAAGCGUUCACGUCGCGGCCGCUGUCAGAUUCUGGUGAAUCUGCGAAUUCUGCUGU [C7A C34G]: 0.136.

Turning to GGGGGCAACAGCAGAAGCGUUCACGUCGCGGCCCCUGUCAGAUUCUGGUGAAUCUGCGAAUUCUGCUGU [C7A], the self-cleavage was found to be 0.643. The result for GGGGGCAGCAGCAGAAGCGUUCACGUCGCGGCCCCUGUCAGAUUCUGGUGAAUCUGCGAAUUCUGCUGU [C7A A8G] reads 0.8; that for GGGGGCAUCAGCAGAAGCGUUCACGUCGCGGCCCCUGUCAGAUUCUGGUGAAUCUGCGAAUUCUGCUGU [C7A A8U], 0.769; that for GGGGGCAACAGCAGAAACGUUCACGUCGCGGCCCCUGUCAGAUUCUGGUGAAUCUGCGAAUUCUGCUGU [C7A G17A], 0.0679. With GGGGGCAACAGCAGAACCGUUCACGUCGCGGCCCCUGUCAGAUUCUGGUGAAUCUGCGAAUUCUGCUGU [C7A G17C], the self-cleavage was 0.14.

Take GGGGGCAACAGCAGAAUCGUUCACGUCGCGGCCCCUGUCAGAUUCUGGUGAAUCUGCGAAUUCUGCUGU [C7A G17U]: the self-cleavage was found to be 0.126. The same measure for GGGGGCAACAGCAGAAGCGUUCACGUCGCGGCCCCUGUCAGAUUCUGGUGAAUCUGCGGAUUCUGCUGU [C7A A59G]: 0.469; for GGGGGCAACAGCAGAAGCGUUCACGUCGCGGCCCCUGUCAGAUUCUGGUGAAUCUGCGUAUUCUGCUGU [C7A A59U]: 0.157.
